Assay results as given in PMC5389570 (Nucleic Acids Research, 2017).

Biological target: heterotrimeric human RPA (RPA70, RPA32, RPA14) (human, UniProt P27694;P15927;P35244)
Experiment: SPR

heterotrimeric human RPA (RPA70, RPA32, RPA14), sequence (P27694 whole entry, chain 1 of 3): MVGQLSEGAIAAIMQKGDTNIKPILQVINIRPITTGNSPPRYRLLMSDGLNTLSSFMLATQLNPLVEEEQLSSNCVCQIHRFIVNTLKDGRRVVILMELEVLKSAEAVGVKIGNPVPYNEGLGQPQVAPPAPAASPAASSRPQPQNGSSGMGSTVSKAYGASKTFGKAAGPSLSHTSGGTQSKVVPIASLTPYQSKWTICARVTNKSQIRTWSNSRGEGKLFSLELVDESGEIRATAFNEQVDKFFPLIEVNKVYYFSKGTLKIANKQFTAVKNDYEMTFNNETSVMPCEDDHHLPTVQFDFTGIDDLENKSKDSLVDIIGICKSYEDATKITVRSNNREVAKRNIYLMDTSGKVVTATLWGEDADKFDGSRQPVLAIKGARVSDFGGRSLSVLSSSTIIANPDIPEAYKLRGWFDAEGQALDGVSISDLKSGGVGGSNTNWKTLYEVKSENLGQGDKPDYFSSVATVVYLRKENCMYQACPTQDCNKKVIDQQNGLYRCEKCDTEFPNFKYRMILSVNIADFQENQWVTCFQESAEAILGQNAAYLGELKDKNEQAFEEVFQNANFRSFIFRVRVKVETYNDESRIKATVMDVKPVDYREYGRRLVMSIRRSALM
heterotrimeric human RPA (RPA70, RPA32, RPA14), sequence (P15927 whole entry, chain 2 of 3): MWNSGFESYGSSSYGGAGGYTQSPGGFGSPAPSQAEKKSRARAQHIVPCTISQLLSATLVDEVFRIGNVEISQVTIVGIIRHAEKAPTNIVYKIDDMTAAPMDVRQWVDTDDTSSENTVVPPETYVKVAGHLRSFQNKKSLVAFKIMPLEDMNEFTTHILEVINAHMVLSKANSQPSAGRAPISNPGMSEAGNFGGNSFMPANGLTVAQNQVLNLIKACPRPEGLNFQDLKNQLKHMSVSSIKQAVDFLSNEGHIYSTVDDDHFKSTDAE
heterotrimeric human RPA (RPA70, RPA32, RPA14), sequence (P35244 whole entry, chain 3 of 3): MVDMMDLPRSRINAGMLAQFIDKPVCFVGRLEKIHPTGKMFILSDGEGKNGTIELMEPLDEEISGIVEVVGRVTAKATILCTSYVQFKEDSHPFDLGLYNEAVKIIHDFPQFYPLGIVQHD

B1: human Cdc45 (cell division cycle protein 45), recombinant, C-terminal His6 tag (natural protein)
chain: MFVSDFRKEFYEVVQSQRVLLFVASDVDALCACKILQALFQCDHVQYTLVPVSGWQELETAFLEHKEQFHYFILINCGANVDLLDILQPDEDTIFFVCDTHRPVNVVNVYNDTQIKLLIKQDDDLEVPAYEDIFRDEEEDEEHSGNDSDGSEPSEKRTRLEEEIVEQTMRRRQRREWEARRRDILFDYEQYEYHGTSSAMVMFELAWMLSKDLNDMLWWAIVGLTDQWVQDKITQMKYVTDVGVLQRHVSRHNHRNEDEENTLSVDCTRISFEYDLRLVLYQHWSLHDSLCNTSYTAARFKLWSVHGQKRLQEFLADMGLPLKQVKQKFQAMDISLKENLREMIEESANKFGMKDMRVQTFSIHFGFKHKFLASDVVFATMSLMESPEKDGSGTDHFIQALDSLSRSNLDKLYHGLELAKKQLRATQQTIASCLCTNLVISQGPFLYCSLMEGTPDVMLFSRPASLSLLSKHLLKSFVCSTKNRRCKLLPLVMAAPLSMEHGTVTVVGIPPETDSSDRKNFFGRAFEKAAESTSSRMLHNHFDLSVIELKAEDRSKFLDALISLLS
B1 was tested, and the Kd was 115 nM.
